Consider 1 protein from paper PMC6872814, “Functional interactions between nitrite reductase and nitric oxide reductase from Paracoccus denitrificans” (Scientific Reports, 2019).

Series [1] concerns the molecule itself. As to the kind of experiment: fluorescence correlation spectroscopy (photon count-rate per molecule, CPM); increasing concentrations of cd1NiR-STAR 635 alone; CPM fitted with the ligand-binding model (Eq. 2); apparent; monomer to dimer; points above 15 nM not in the fit.
Series [2] concerns the molecule itself. As to the kind of experiment: fluorescence correlation spectroscopy (photon count-rate per molecule, CPM); increasing concentrations of cd1NiR-STAR 635 with 40 nM unlabelled cNOR in the solution; CPM fitted with the ligand-binding model (Eq. 2); apparent; monomer to dimer.

B1: cytochrome cd1 nitrite reductase (cd1NiR) from Paracoccus pantotrophus, labelled with Abberior STAR 635 (enzyme, UniProt P72181 30-596, looked up)
chain: QEQVAPPKDPAAALEDHKTRTDNRYEPSLDNLAQQDVAAPGAPEGVSALSDAQYNEANKIYFERCAGCHGVLRKGATGKALTPDLTRDLGFDYLQSFITYGSPAGMPNWGTSGELSAEQVDLMANYLLLDPAAPPEFGMKEMRESWKVHVAPEDRPTQQENDWDLENLFSVTLRDAGQIALIDGATYEIKSVLDTGYAVHISRLSASGRYLFVIGRDGKVNMIDLWMKEPTTVAEIKIGSEARSIETSKMEGWEDKYAIAGAYWPPQYVIMDGETLEPKKIQSTRGMTYDEQEYHPEPRVAAILASHYRPEFIVNVKETGKILLVDYTDLDNLKTTEISAERFLHDGGLDGSHRYFITAANARNKLVVIDTKEGKLVAIEDTGGQTPHPGRGANFVHPTFGPVWATSHMGDDSVALIGTDPEGHPDNAWKILDSFPALGGGSLFIKTHPNSQYLYVDATLNPEAEISGSVAVFDIKAMTGDGSDPEFKTLPIAEWAGITEGQPRVVQGEFNKDGTEVWFSVWNGKDQESALVVVDDKTLELKHVIKDERLVTPTGKFNVYNTMTDTY
modifications: Abberior STAR 635 (amino-reactive dye, 5-fold molar excess; sites not stated); heme c and heme d1
notes: cytochrome cd1 nitrite reductase (cd1NiR), Paracoccus pantotrophus (G6), soluble periplasmic protein; 97% identical to the P. denitrificans enzyme; STAR 635-labelled in the fluorescence experiments; the activity assays (functional rows) used the same protein unlabelled; Written as the monomer chain; also called cd1NiR-STAR 635; cd1NIR-STAR 635
As for B1, the Kd in series [1] was 3.5 ± 0.1 nM; in series [2] it was 5.3 ± 0.2 nM.
